Results: patent publication US20220289848A1

Legend:
CD47 = CD47 (UniProt Q08722); assay: FACS binding, CHO-K1 cells expressing CD47; flat curve
PD-L1 = PD-L1 (UniProt Q9NZQ7); assay: FACS binding, CHO-K1 cells expressing PD-L1; flat curve
[1] = molecular target: human PD-L1 on PD-L1 aAPC/CHO-K1 Cells (human) (UniProt Q9NZQ7); assay: cell-based or functional assay
Chain of human PD-L1 on PD-L1 aAPC/CHO-K1 Cells (human) (Q9NZQ7 19-290): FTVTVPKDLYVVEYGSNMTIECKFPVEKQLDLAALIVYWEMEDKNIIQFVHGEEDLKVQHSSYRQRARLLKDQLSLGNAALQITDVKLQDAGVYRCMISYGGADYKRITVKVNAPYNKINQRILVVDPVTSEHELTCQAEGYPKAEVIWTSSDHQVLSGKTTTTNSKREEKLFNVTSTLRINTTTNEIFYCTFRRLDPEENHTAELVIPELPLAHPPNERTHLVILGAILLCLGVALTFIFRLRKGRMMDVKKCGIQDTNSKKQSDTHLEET

Chain of PD-L1 (Q9NZQ7 19-290): as above

| Substance | EC50 (CD47) [nM] | EC50 (PD-L1) [nM] | PD-1/PD-L1 blockade bioassay, relative activity (reference) [1] [%] |
| --- | --- | --- | --- |
| Human IgG | 0.00446 | 38.3 | – |
| Tecentriq biosimilar (antibody) | – | – | 100 |
